{
  "source": "patent US20230381277A1",
  "about": "“HIGH AFFINITY IL-2 RECEPTOR AGONISTS AND IMMUNOSUPPRESSANTS TO ENHANCE IMMUNE TOLERANCE” (Selecta Biosciences, Inc., priority 2022, published 2023)",
  "molecules": {"B1": {"name": "ovalbumin (protein, UniProt P01012 2-386, looked up)", "Ovalbumin": "GSIGAASMEFCFDVFKELKVHHANENIFYCPIAIMSALAMVYLGAKDSTRTQINKVVRFDKLPGFGDSIEAQCGTSVNVHSSLRDILNQITKPNDVYSFSLASRLYAEERYPILPEYLQCVKELYRGGLEPINFQTAADQARELINSWVESQTNGIIRNVLQPSSVDSQTAMVLVNAIVFKGLWEKAFKDEDTQAMPFRVTEQESKPVQMMYQIGLFRVASMASEKMKILELPFASGTMSMLVLLPDEVSGLEQLESIINFEKLTEWTSSNVMEERKIKVYLPRMKMEEKYNLTSVLMAMGITDVFSSSANLSGISSAESLKISQAVHAAHAEINEAGREVVGSAEAGVDAASVSEEFRADHPFLFCIKHIATNAVLFFGRCVSP"}},
  "tested_on": "Ovalbumin-specific OTII T cells",
  "assay": "Example 5: adoptive transfer of ovalbumin-specific OTII T cells, antigen-specific Treg induction",
  "assay_type": "in vivo",
  "conditions": "mice with adoptively transferred OTII T cells; starting level ~3%",
  "protocol": "However, expansion of antigen-specific Treg can be more desirable than expansion of total Treg. The ability of ImmTOR plus antigen combined with IL-2 mutein to induce and/or expand antigen-specific Treg was evaluated. Ovalbumin-specific OTII T cells were adoptively transferred into mice prior to treatment with ovalbumin and ImmTOR and/or IL-2 mutein.",
  "data": [
    {"molecule": "B1", "values": [
      {"measurement": "percentage of Foxp3+ DTII cells", "value": "~6", "unit": "%"}
    ]}
  ]
}
